One assay addresses T1, GST-HPV-16 E6 (human papillomavirus type 16, UniProt P03126 1-158).
T1 construct: early protein 6 (E6) of human papillomavirus type 16; also called GST-E6; GST-16 E6; source: E. coli BL21, purified on glutathione Sepharose beads and kept on the beads
The assay is described as follows: filter plate bead binding assay (BAP chemiluminescence); dissociation rate experiment: GST-E6 and E6AP-BAP bound to equilibrium, unbound E6AP-BAP washed away, decrease in BAP signal at each time point. The note with it: both partners purified.

For assay [1], the target named is T2, GST-HPV-16 E6 (human papillomavirus type 16), P03126.
T2 chain: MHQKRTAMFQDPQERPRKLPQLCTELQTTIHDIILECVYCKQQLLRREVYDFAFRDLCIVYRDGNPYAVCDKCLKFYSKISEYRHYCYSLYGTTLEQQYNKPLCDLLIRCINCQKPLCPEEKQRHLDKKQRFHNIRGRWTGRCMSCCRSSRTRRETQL
The assay can be described thus: filter plate bead binding assay (BAP chemiluminescence); competition: peptide added to bead-bound GST-E6 and free E6AP-BAP; 1 hour incubations.

B1: E6AP-BAP fusion protein (E6AP residues 371-440 fused to bacterial alkaline phosphatase) (domain or fragment, UniProt Q05086 371-440, looked up)
chain: ASKCLKMVYYANVVGGEVDTNHNEEDDEEPIPESSELTLQELLGEERRNKKGPRVDPLETELGVKTLDCR
notes: also called FLAG-tagged E6AP-BAP; source: E. coli BL21, purified (anti-FLAG resin, glycine pH 2.5 elution)
For B1, in the assay with GST-HPV-16 E6, the “half-life of ligand dissociation (t1/2)” value came to 3.6 min.
Turning to IPESSELTLQELLGEERR (modifications not checked) [E6AP 18-mer peptide], the percent inhibition at 100 µM in assay [1] was determined as 95%.

The record behind these values is paper PMC3871595, “Structure Based Identification and Characterization of Flavonoids That Disrupt Human Papillomavirus-16 E6 Function” (PLoS ONE, 2013).
